Reference: the nanobody polyreactivity screen of Harvey et al. (2022)

Assay: yeast display, Sf9 membrane polyspecificity reagent, FACS + sequencing; frameworks hold sequencing errors
In short: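 A synthetic nanobody library was expressed on Saccharomyces cerevisiae BJ5465 by galactose induction for 36–48 hours. The library was stained for 1 hour at 4 °C with 10% biotinylated, detergent-solubilized Sf9 membrane reagent and enriched with streptavidin microbeads before FACS. Low and high (top ~1%) gates were set on anti-HA fluorescence for expression and streptavidin fluorescence for reagent binding, and each polyreactivity label reflects the gate of origin.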

Row | Sequence | polyreactivity (PSR sort gate)
1 | QVQLVESGGGLVQAGGSLRLSCAASGITFTVYAMGWYRQARGKERELVAAINSGSSTNYADSVKGRFTISRDNAKNTVFLQMNSLKPEDTAVYYCAASYRKLPDKKRYGYWGQGTQVTVSS | high polyreactivity
2 | QVQLVESAGGLVQAGGSLRLSCAASGSTLYGYVMGWYRQAPGKERELVAAITWSSGYTYYADSVKGRFTISRDNAKITVYLQMNILKPVDTAVYYCAVRDRSPYGYYYWGQGTQVTVSS | low polyreactivity
3 | QVQLVESAGGLVQEGGSLRLSCAASGSTFPYYAMGWYRQAPGKERELVAAISQNGGSTYYADSVKGRFTISRDNAMNTVYLQMNRLKPEDTAVYYCNADGVGGEYRLSGYAYWGQGTQVTVSS | low polyreactivity
4 | QVQLVESGGGLVQAGGSLRLSCAASGGIFSPNAMGWYRQAHGKERELVASISSNGGSTNYADSVKGRFTISRDNAKNTVYLQMNSLKPEDTAVYYCAGLQKRRSYWRPFYWGQGTQVTVSS | low polyreactivity
5 | QVQLVESGGGLVQAGGSLRLSCAASGFTLDYYAMGWYRKAPGKERELVAAISFSGGSTYYADSVKGRFTISRDNAKNTVYLQMNSLKPEDTAVYYCAADPQIVWYDYWGQGTQVTVSS | low polyreactivity
6 | QVQLVESGGGLVQAGGSLRLSCAASGRTFYGYTMGWYRQAPGKERELDAAIRTSGGSTYADSVKGRFTISRDNAKNTVYLQMNSLKPEDTAVYYCAAPRVVYYGTAPAYRYDYWGQGTQVTVSS | high polyreactivity
7 | QVQLVESGGGLVQAGGSLRLSCAASGIIIRYYAMGWYRQAPGKERELVAAISTSGGRTYYADSVKGRFTISRDNAKNPVYLQMNSLKPEDTAVYYCAARPGSWYPSVPSYNYWGQGTQVTVSW | low polyreactivity
8 | QVQLVESGGGLVQAGGSLRLSCAASGRTFVYYAMGRYRQAPGKERELVAAISGSGGSTYYADSVKGRFTISRDNAKNTVYLQMISLKPEDTAVYYCAAGPRGRYRYGYWGQGTQVTVSS | high polyreactivity
9 | QVQLVETGGGLVQAGGSLRLSCAASGRTFGIYAMGWYRQAPGKERELVAANTGRGGSTHYADSVKGRFTISRDNAKNTVYLQMNSLKPEDTEVYYGAADYRYNRGITSNKDYDYWGQGTQVTVSS | low polyreactivity
10 | QVQLVESGGGLVQAGGSLRLSCAASGFIFYSNAMGWYRQAPGKERELVAAISRRGGSTYYADSVKGRFTISRDNAKNTVYLQMNSLKPEDTAVYYCAARVVSGFDSWGQGTQVTVSS | high polyreactivity
11 | QVQLVESGGGLVQAGGSLRLSCAASGSTFKFYTMGWYRQAPGKERELVATIDWSGGSTYYADSVKGRFTISRDNAKNTVYLQMNSLKPEDTAVYYCAAYSRSRNTRLGKYYYWGQGTQVTVSS | high polyreactivity
12 | QVQLEESGGGLVQAGGSLRLSCAASGINFQGNARGWYRQAPGKERELVASITAGGDTTYYADSVKGRFTISRDNAKNTFYLQLNSVKPEDSEVYDCAVYSWLDADDSYPDSILVDYWGQGTQVTVSS | low polyreactivity
13 | QVHLVASGGGLVQAGGSLRLSCAASGSIFRRYAKGSYRQAPGKERELGAGISSGGYTNYAASVKGPFTISRDNAKNNVYLQRYSLKPEDTAVYYCAANQYRDVRYRPVDYWGQGTQVTVSS | high polyreactivity
14 | QVQLVESGGGLVQAGGSLRLSCAASGSIFNWNTMGWYRQAPGKERELVAAITYDGGTTYYADSVKGRFTISRDNAKNTVYLQMNSLKPEDTAVYYCAAEFLYKYGRYDYWGQGTQVTVSS | high polyreactivity
15 | QVQLVESGGGLVQAGGSLRLICAASGGTFYAYAMGWYRQAPGKERELVAAITRSGGRTYYADSVKGRFTISRDNAKNTVSLQMNSLKPEDTAVYYCAADPHHYSGLDYWGQGTQVTVSS | low polyreactivity
16 | QVQHVQSGGGLVQAGGRHRLSCAASGSTIRYYAMGWYRQAPGTERELVAAISGSGGRTYYADSVKGRFTISRDNAKNTGYLQMNSLKPEDTAVYYCYTRGRRTDNDYWGQGTQLTVSS | high polyreactivity

Row | Sequence | polyreactivity (PSR sort gate)
17 | QVQLVESGGGLVQAGGSLRLSCAASGYTFTSNDMGWYRQAPGKERELVAAITWSGGTTYYADSVKGRFTISRDNAKNTVYLQMNSLKPEDTAVYYCAAESTLPIIDRDDYWGQGTQVTVSS | low polyreactivity
18 | QGQLVESGGGLVQAGGSLRLSCAASGRTFYTYAMGWYSPAAGKERELVAAMTRSGGRTYYADSVKVRFTISRDNAKNTVYLQMNSLKPEDTAVYYCGAKTFYWWADYDYWGQGTQVTVSS | high polyreactivity
19 | QVQLVESGGGLVQAGGSLRLSCAASGRIFYQYAMGWYRQAPGKEREMVAAISRRGASTYYADSVKGRFTISRDNAKNTVYLQMNSLKPEDTAVYYCAAEPRAYSHQYNYWGQGTQVTVSS | high polyreactivity
20 | QVQLVESGAGLFQAGGSLRLSCAASGRIFNQYGMAWYRQAPGKERELVAAIRSGDSTNYADSVKGRFTISRDNAKNTVFLQMNSLKPEVTAVYYCARDRPGDYDGYDYCGQGTQVTVSS | low polyreactivity
21 | QVQLVESGGGLVQAGGSLRISCAASGGIFRYVMGWYRQAPGKERELVATISGRGGSTYYADSVKGRFTISRDNAKNTVYLQMNSLKPEDTAVYYCATHSWRRAGYEYWGQGTQVTVSS | high polyreactivity
22 | QVQLVESGGGVVQAGGSLRLSCAASGNIFFGNAMGWYRQAPGKERELVAAITKRGGSTYYADSVKGRFTISRDNAKNTVYLQMNSLKPEDTAVYYCAAVSYSKRTWSMNYWGQGTQVTVSS | high polyreactivity
23 | QVLLVESGGALVQAGGSLRLSCAASGYIFRFYTLRGYRQAPGKERELVAAISAGGSTNSADSVKGRFTISRDNAKNTVYLQMNSLKPEDTAVEYCAARYYSRYYWGQGTQVTVSS | low polyreactivity
24 | QLQLHESGGGLVQAGGCLSCTASGTIFGQGDMGWYRQAPGKERELVATINDGASTYYADSVKGRFTISRDKAKNTVYLKKNSLKPDDNAVYYCAVFTDITTYFGYWGQGTQVTVSS | low polyreactivity
25 | QVQLVESGGGLVQAGGSLRLSCAASGFIFDYNAMGWYRQAPGKERELVDAISGGGGSTYYADSVKGRFTISRDNAKNTVFLLMNSLKPEDTSVYDCAKRYRGGYWGQGSQVTVSS | high polyreactivity
26 | QVQLVESGGGLVQAGGSLRLSCAASGTFYYYAMGWYRQAPGKERELVAAISNGDSTTYADSVKGRFTISRDNAKNTVYLQMTSLKPEDTAVYYCAAYRYTPRTSRGYYYWGQGTQVTVSS | low polyreactivity
27 | QVQLVESGGGLVQAGGSLRLSCAASGFTISAYAMGWYRQAPGKERQLVASISRGGITNYADSVKGRFTISRDNAKNTVYLQMTSLKPEETAVYYCAAETRNHGILYDYWGQGTQVTVSS | high polyreactivity
28 | QVQLVESGGGLVQAGGSLRLSCAASGRIFSVYAMGWYRQAPGKERELVASIRSRGSSTYYADSVKGRFTISRDNAKNTVYLQMNSLKPEDTAVYYCAVDVLTVGQSYDHWGQGTQVTVSS | high polyreactivity
29 | QVQLVESGGGLVQAGGSLRLTCAASGSTFGWYTKGWYRQAPGKERELVAAISSGGSTYYADSVKGRFTISRDNAKNTVYLQMNSLKPEDTAVYYCNAKVPSSYSYYSYYEYDYWGQGTQVTVSS | low polyreactivity
30 | QVQLVESGGGLVQAGGSLRLSCAASGRTFTRYAMGWYRQAPGKERELVAAISLSSGRTYYADSVKGRFTISRDNAKNTVYLQMNSLKPEDTAVYYCAVRSYVVPGKGFGYWGQGTQVTVSS | high polyreactivity
31 | QVQLVESGGGLVQAGGSLRLSCAASGLIFYFYVMGWYRQAPGKERELVAGIDTGSSTNYADSVKGRFTISRDNAKNTVYLQMNSLKPEDTAVYYCAADSVSKYGSDYWGQGTQVTVSS | low polyreactivity
32 | QVQLVESGGGLVQAGGSLRLSCAASGSTFIFNAMGWYRQAPGKERELVAGISSGSTYYADSVKGRFTISRDNAKNTVYLQMNSLIPEDTAVYSCATKLRRWRFYAAYDYWGQGTQVTVSS | high polyreactivity
